Measured values taken from IntAct's records for PubMed 29892012.

B1: E3 ubiquitin-protein ligase LNX (Homo sapiens), Q8TBB1 (parent)
chain: MNQPESANDPEPLCAVCGQAHSLEENHFYSYPEEVDDDLICHICLQALLDPLDTPCGHTYCTLCLTNFLVEKDFCPMDRKPLVLQHCKKSSILVNKLLNKLLVTCPFREHCTQVLQRCDLEHHFQTSCKGASHYGLTKDRKRRSQDGCPDGCASLTATAPSPEVSAAATISLMTDEPGLDNPAYVSSAEDGQPAISPVDSGRSNRTRARPFERSTIRSRSFKKINRALSVLRRTKSGSAVANHADQGRENSENTTAPEVFPRLYHLIPDGEITSIKINRVDPSESLSIRLVGGSETPLVHIIIQHIYRDGVIARDGRLLPGDIILKVNGMDISNVPHNYAVRLLRQPCQVLWLTVMREQKFRSRNNGQAPDAYRPRDDSFHVILNKSSPEEQLGIKLVRKVDEPGVFIFNVLDGGVAYRHGQLEENDRVLAINGHDLRYGSPESAAHLIQASERRVHLVVSRQVRQRSPDIFQEAGWNSNGSWSPGPGERSNTPKPLHPTITCHEKVVNIQKDPGESLGMTVAGGASHREWDLPIYVISVEPGGVISRDGRIKTGDILLNVDGVELTEVSRSEAVALLKRTSSSIVLKALEVKEYEPQEDCSSPAALDSNHNMAPPSDWSPSWVMWLELPRCLYNCKDIVLRRNTAGSLGFCIVGGYEEYNGNKPFFIKSIVEGTPAYNDGRIRCGDILLAVNGRSTSGMIHACLARLLKELKGRITLTIVSWPGTFL
partner: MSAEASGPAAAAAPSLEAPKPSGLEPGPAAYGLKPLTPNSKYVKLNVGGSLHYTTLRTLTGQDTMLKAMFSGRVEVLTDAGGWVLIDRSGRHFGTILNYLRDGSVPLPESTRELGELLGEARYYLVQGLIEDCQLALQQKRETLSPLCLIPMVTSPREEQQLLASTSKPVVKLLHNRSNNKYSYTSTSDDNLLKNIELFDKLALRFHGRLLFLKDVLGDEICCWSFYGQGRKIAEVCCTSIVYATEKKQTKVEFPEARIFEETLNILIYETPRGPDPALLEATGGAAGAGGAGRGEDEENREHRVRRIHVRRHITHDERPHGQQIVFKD
B2: E3 ubiquitin-protein ligase LNX (Homo sapiens), Q8TBB1 (parent)
chain: B1 chain
partner: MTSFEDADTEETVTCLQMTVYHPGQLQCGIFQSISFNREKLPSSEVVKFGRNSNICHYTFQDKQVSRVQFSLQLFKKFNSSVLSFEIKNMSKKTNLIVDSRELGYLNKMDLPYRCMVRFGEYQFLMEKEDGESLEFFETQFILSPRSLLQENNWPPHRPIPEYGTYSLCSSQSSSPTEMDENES
B3: E3 ubiquitin-protein ligase LNX (Homo sapiens), Q8TBB1 (parent)
chain: B1 chain
partner: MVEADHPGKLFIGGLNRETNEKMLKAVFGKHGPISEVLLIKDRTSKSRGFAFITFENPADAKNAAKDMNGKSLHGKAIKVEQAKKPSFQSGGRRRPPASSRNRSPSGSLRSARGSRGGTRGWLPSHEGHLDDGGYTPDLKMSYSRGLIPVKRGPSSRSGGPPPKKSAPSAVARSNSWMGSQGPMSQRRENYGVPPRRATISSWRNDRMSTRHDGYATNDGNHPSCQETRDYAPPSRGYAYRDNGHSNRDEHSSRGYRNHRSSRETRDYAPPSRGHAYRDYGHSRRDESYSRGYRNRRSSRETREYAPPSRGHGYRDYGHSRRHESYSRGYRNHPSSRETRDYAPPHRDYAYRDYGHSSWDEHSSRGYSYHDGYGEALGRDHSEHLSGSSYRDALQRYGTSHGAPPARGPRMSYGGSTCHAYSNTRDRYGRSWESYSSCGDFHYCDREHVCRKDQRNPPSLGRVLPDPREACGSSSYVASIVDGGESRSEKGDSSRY
B4: E3 ubiquitin-protein ligase LNX (Homo sapiens), Q8TBB1 (parent)
chain: B1 chain
partner: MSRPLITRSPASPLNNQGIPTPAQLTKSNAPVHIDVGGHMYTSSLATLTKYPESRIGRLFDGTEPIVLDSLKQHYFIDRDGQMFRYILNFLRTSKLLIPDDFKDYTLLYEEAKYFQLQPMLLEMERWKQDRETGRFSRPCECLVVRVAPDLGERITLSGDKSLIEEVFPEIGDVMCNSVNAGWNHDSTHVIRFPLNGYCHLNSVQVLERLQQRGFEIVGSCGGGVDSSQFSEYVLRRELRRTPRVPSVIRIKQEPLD
B5: Ras GTPase-activating protein-binding protein 2 (Homo sapiens), Q9UN86 (parent)
chain: MVMEKPSPLLVGREFVRQYYTLLNKAPEYLHRFYGRNSSYVHGGVDASGKPQEAVYGQNDIHHKVLSLNFSECHTKIRHVDAHATLSDGVVVQVMGLLSNSGQPERKFMQTFVLAPEGSVPNKFYVHNDMFRYEDEVFGDSEPELDEESEDEVEEEQEERQPSPEPVQENANSGYYEAHPVTNGIEEPLEESSHEPEPEPESETKTEELKPQVEEKNLEELEEKSTTPPPAEPVSLPQEPPKAFSWASVTSKNLPPSGTVSSSGIPPHVKAPVSQPRVEAKPEVQSQPPRVREQRPRERPGFPPRGPRPGRGDMEQNDSDNRRIIRYPDSHQLFVGNLPHDIDENELKEFFMSFGNVVELRINTKGVGGKLPNFGFVVFDDSEPVQRILIAKPIMFRGEVRLNVEEKKTRAARERETRGGGDDRRDIRRNDRGPGGPRGIVGGGMMRDRDGRGPPPRGGMAQKLGSGRGTGQMEGRFTGQRR
B6: Coiled-coil domain-containing protein 158 (Homo sapiens), Q5M9N0 (parent)
chain: MESKAWESNNEDLLSSSGVTSNGGSSSSFFVSSIRGTIIENTSSAGTLTQVPFFPKYEVELDSPRKIIPSPGKEHFERVLEEYSHQVKDLQRRLNESNELHEKQKFYLRQSVIDLQTKLQEMQMERDAMADIRRRESQSQEDLRNQLQNTVHELEAAKCLKEDMLKDSNTQIEQLRKMMLSHEGVLQEIRSILVDFEEASGKKICEHDSMSTLHFRSLGSAISKILRELDTEISYLKGRIFPVEDQLEALKSESQNKIELLLQQHQDRIEQLISEHEVEITGLTEKASSARSQANSIQSQMEIIQEQARNQNSMYMRQLSDLESTVSQLRSELREAKRMYEDKTEELEKQLVLANSELTEARTERDQFSQESGNLDDQLQKLLADLHKREKELSLEKEQNKRLWDRDTGNSITIDHLRRELDNRNMEVQRLEALLKALKSECQGQMERQMAAIQGKNESLEKVSSLTAQLESTKEMLRKVVEELTAKKMTLESSERTISDLTTSLQEKERAIEATNAEITKLRSRVDLKLQELQHLKNEGDHLRNVQTECEALKLQMTEKDKVIEILRQQIENMTQLVGQHGRTAGAMQVEKAQLEKEINDRRMELKELKILKDKKDAKIRELEARVSDLELEKVKLVNAGSERLRAVKDIKQERDQLLNEVKTSRSELNNLSEEYEVLKRNFRNKSEEMEMTTNKLKMQLKSAQSELEQTRNTLKSMEGSDGHAMKVAMGMQKQITAKRGQIDALQSKIQFLEEAMTNANKEKHFLKEEKSKLSQELSTVATEKNKMAGELEVLRSQERRLKEKVTNMEVALDKASLQFAECQDIIQRQEQESVRLKLQHTLDIKELQGPGYTSNSSLKPRLLQPASVTRSHSNVPSSQSTASFLSHHSTKANTLKEDPTRDLKQLLQELRSVINEEPAVSLSKTEEDGRTSLGALEDRVRDCITESSLRSDMCHRSNNSLRDSTEGSKSSETLSREPVTLHAGDREDPSGCFTFTSAASPSVKNSASRSFNSSPKKSPVHSLLTSSVEGSIGSTSQYRSAKPIHSSDSVKDSQSPPIETTGKTCRKLQNRLESLQTLVEDLQLKNQAMSSMIRNQEKRIQKVKDQEKMLLK
partner: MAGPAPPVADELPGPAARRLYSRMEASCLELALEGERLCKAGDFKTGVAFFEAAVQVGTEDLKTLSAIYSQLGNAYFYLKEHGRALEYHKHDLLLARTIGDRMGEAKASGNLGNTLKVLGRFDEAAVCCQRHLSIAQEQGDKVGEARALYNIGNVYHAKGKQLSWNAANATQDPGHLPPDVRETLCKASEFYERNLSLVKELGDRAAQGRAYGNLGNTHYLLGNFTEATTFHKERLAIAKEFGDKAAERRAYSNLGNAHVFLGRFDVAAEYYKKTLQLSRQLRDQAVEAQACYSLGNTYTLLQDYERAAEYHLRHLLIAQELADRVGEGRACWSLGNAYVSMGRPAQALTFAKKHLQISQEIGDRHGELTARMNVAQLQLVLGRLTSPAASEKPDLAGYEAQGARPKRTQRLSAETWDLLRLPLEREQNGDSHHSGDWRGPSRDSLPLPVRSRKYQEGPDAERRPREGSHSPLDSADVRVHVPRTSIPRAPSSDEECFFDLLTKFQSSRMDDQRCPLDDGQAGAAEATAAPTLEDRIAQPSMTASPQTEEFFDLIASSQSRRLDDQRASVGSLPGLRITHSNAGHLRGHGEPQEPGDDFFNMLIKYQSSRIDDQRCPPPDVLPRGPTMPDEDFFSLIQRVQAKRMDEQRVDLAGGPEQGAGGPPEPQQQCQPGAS
B7: Protein Largen (Homo sapiens), Q569H4 (parent)
chain: MSAKSKGNPSSSCPAEGPPAASKTKVKEQIKIIVEDLELVLGDLKDVAKELKEVVDQIDTLTSDLQLEDEMTDSSKTDTLNSSSSGTTASSLEKIKVQANAPLIKPPAHPSAILTVLRKPNPPPPPPRLTPVKCEDPKRVVPTANPVKTNGTLLRNGGLPGGPNKIPNGDICCIPNSNLDKAPVQLLMHRPEKDRCPQAGPRERVRFNEKVQYHGYCPDCDTRYNIKNREVHLHSEPVHPPGKIPHQGPPLPPTPHLPPFPLENGGMGISHSNSFPPIRPATVPPPTAPKPQKTILRKSTTTTV
B8: Ubiquitin domain-containing protein 2 (Homo sapiens), Q8WUN7 (parent)
chain: MGGCVGAQHDSSGSLNENSEGTGVALGRNQPLKKEKPKWKSDYPMTDGQLRSKRDEFWDTAPAFEGRKEIWDALKAAAHAFESNDHELAQAIIDGANITLPHGALTECYDELGNRYQLPVYCLAPPINMIEEKSDIETLDIPEPPPNSGYECQLRLRLSTGKDLKLVVRSTDTVFHMKRRLHAAEGVEPGSQRWFFSGRPLTDKMKFEELKIPKDYVVQVIVSQPVQNPTPVEN
partner: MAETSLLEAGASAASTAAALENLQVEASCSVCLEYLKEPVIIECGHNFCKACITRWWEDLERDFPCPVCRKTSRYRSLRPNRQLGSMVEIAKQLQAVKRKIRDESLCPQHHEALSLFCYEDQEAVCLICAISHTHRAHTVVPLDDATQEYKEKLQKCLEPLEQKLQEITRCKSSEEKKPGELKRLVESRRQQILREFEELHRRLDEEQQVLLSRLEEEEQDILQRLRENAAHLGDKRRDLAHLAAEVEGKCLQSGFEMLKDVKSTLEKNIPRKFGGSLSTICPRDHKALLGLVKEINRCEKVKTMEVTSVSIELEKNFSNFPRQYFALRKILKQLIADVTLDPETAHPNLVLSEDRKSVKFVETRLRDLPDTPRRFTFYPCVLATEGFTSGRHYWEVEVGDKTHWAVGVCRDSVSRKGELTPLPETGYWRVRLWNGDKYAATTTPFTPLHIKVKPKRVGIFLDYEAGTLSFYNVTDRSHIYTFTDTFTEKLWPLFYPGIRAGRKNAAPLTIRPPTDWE

Variants of: B1
Conditions: with bacd1_human KCTD13, Q8WZ19

| Variant | effect of a mutation on the interaction |
| --- | --- |
| E295K | disrupting interaction strength |

Variants of: B2
Conditions: with tifa_human TIFA

| Variant | effect of a mutation on the interaction |
| --- | --- |
| E295K | disrupting interaction strength |

Variants of: B3
Conditions: with rby1a_human RBMY1A1, P0DJD3

| Variant | effect of a mutation on the interaction |
| --- | --- |
| E295K | disrupting interaction strength |

Variants of: B4
Conditions: with kctd1_human KCTD1, Q719H9

| Variant | effect of a mutation on the interaction |
| --- | --- |
| E295K | disrupting interaction strength |

Variants of: B5
Conditions: with ubp10_human USP10, Q14694
ubp10_human USP10, Q14694, sequence (Q14694 whole entry): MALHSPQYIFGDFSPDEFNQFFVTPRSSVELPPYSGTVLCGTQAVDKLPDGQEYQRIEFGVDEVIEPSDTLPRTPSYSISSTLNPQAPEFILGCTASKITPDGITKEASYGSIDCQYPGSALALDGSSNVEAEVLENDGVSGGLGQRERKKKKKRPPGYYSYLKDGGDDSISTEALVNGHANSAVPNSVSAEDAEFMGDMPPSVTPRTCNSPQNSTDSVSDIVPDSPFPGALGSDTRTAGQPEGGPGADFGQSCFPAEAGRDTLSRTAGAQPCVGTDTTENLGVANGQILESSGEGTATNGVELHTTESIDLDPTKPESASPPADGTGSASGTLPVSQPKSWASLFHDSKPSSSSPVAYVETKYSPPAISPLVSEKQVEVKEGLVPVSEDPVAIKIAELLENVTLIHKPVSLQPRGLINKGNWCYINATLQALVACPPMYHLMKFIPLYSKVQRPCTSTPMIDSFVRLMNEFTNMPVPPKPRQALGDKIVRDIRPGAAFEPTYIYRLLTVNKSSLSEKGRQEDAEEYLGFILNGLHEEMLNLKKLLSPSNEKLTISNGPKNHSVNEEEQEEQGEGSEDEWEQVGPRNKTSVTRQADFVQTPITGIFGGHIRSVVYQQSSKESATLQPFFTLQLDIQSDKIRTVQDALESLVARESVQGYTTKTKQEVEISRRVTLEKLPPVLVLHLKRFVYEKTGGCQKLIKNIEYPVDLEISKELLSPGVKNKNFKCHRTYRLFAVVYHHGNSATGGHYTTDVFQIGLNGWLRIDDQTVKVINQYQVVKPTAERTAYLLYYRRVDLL

| Variant | effect of a mutation on the interaction |
| --- | --- |
| L209P | with no effect |

Variants of: B6
Conditions: with gpsm1_human GPSM1, Q86YR5

| Variant | effect of a mutation on the interaction |
| --- | --- |
| R78H | with no effect |

Variants of: B7
Conditions: with abi2_human ABI2, Q9NYB9
abi2_human ABI2, Q9NYB9, sequence (Q9NYB9 whole entry): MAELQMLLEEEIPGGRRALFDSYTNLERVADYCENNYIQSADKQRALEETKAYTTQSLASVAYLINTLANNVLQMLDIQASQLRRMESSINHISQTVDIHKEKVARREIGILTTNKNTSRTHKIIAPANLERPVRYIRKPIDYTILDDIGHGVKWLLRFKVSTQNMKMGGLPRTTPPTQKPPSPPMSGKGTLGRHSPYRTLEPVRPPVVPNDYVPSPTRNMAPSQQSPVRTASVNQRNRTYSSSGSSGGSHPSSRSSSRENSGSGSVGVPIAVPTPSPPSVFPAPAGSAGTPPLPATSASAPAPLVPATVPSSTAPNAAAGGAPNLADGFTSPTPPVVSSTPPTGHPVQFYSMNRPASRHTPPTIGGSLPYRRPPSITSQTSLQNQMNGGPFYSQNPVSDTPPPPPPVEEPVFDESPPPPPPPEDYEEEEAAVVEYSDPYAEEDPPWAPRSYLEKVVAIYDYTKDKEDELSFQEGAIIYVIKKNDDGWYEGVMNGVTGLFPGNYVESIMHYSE

| Variant | effect of a mutation on the interaction |
| --- | --- |
| Q98P | with no effect |

Variants of: B8
Conditions: with tri39_human TRIM39, Q9HCM9

| Variant | effect of a mutation on the interaction |
| --- | --- |
| R180W | with no effect |
